According to paper PMC2921123 (2010):

Experiments:
Test in all cases: SPR
[1] = molecular target: human Igαβ heterodimer, extracellular domains fused with a leucine zipper (Igαβ-LZ) (human) (UniProt P11912)
[2] = molecular target: Fc portion of a human BCR μ-chain (Fcμ, amino acid residues 258-586), corresponding to Cμ2-Cμ4 (human)
Fcμ Fc = molecular target: T1, Fcμ Fc (Homo sapiens, UniProt P01871)
T1 chain: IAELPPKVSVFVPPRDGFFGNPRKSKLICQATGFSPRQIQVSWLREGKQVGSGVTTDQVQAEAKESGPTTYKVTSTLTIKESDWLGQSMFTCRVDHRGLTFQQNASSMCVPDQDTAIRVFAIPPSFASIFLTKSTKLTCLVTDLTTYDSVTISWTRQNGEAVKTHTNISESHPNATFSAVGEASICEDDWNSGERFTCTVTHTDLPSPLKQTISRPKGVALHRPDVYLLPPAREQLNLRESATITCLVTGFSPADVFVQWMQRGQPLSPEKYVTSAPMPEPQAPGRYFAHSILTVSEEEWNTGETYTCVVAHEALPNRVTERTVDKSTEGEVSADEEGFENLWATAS

Chain of Fc portion of a human BCR μ-chain (Fcμ, amino acid residues 258-586), corresponding to Cμ2-Cμ4 (human) (P01871 whole entry, the tested form may be a part): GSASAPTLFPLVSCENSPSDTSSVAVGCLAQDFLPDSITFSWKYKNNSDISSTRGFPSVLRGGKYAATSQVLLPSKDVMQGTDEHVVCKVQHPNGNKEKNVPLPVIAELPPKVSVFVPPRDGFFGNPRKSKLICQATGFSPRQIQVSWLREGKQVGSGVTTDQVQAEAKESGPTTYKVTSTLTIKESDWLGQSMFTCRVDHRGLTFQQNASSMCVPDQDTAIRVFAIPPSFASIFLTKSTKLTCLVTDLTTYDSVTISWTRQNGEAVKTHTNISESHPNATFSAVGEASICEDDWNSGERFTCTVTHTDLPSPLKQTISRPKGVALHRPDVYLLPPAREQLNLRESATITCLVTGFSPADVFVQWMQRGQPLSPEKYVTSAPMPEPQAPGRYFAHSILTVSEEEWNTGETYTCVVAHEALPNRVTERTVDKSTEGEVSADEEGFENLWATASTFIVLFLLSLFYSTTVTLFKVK

Molecule: human IgM (from UniProt P01591 23-159) (antibody)
- Kd [1]: > 10000 nM

Molecule: human Igα extracellular portion, N60A (α3) (from UniProt P11912 33-143) (domain or fragment)
- fold increase of binding against the wild type [2]: 2 fold

Molecule: human Igβ extracellular portion, Q123A/Q124A/K125A (β4) (from UniProt P40259 26-159) (domain or fragment)
- fold reduction of binding against the wild type [2]: 2 fold

Molecule: human Igβ extracellular portion, R55A/K56A/R57A (β1) (from UniProt P40259 26-159) (domain or fragment)
- fold reduction of binding against the wild type [2]: 6 fold

B1: Igαβ (protein)
chain 1: LWMHKVPASLMVSLGEDAHFQCPHNSSNNANVTWWRVLHGNYTWPPEFLGPGEDPNGTLIIQNVNKSHGGIYVCRVQEGNESYQQSCGTYLRVRQPPPRPFLDMGEGTKNRIITAEGIILLFCAVVPGTLLLFRKRWQNEKLGLDAGDEYEDENLYEGLNLDDCSMYEDISRGLQGTYQDVGSLNIGDVQLEKP
chain 2: ARSEDRYRNPKGSACSRIWQSPRFIARKRGFTVKMHCYMNSASGNVSWLWKQEMDENPQQLKLEKGRMEESQNESLATLTIQGIRFEDNGIYFCQQKCNNTSEVYQGCGTELRVMGFSTLAQLKQRNTLKDGIIMIQTLLIILFIIVPIFLLLDKDDSKAGMEEDHTYEGLDIDQTATYEDIVTLRTGEVKWSVGEHPGQE
- Kd (Fcμ Fc): ~2000 nM
